What is called Km is the substrate concentration at which the rate is half of its maximum.

The values that follow come from patent publication US7727950.

Some results are limits rather than exact numbers.

The target of data set [1] is T1, generic peptide substrate RRRLSFAEPG
T1 chain: RRRLSFAEPG

Data set [2] addresses T2, standard peptide substrate KEAKEKRQEQIAKRRRLSSLRASTSKSGGSQK
T2 chain: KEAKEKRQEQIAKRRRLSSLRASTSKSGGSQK

Data set [3] deals with T3, standard peptide substrate GRPRTSSFAEG
T3 chain: GRPRTSSFAEG

Data set [4] has as its target T4, generic peptide substrate KKLNRTLSFAEPG
T4 chain: KKLNRTLSFAEPG

Data set [5] addresses T5, standard peptide substrate HMRSAMSGLHLVKRR
T5 chain: HMRSAMSGLHLVKRR

In data set [6] the target is T6, generic peptide substrate RARTLSFAEPG
T6 chain: RARTLSFAEPG

Data set [7] deals with T7, standard peptide substrate LRRASLG.
T7 chain: LRRASLG

Data set [8] addresses T8, standard peptide substrate KKLNRTLSVA
T8 chain: KKLNRTLSVA

The target of data set [9] is T9, standard peptide substrate KKLRRTLSVA
T9 chain: KKLRRTLSVA

In data set [10] the target is T10, standard peptide substrate KKKVSRSGLYRSPSMPENLNRPR
T10 chain: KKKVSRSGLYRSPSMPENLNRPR

B1: cGMP-dependent protein kinase (PKG) (protein)
chain: SELEEDFAKILMLKEERIKELEKRLSEKEEEIQELKRKLHKCQSVLPVPSTHIGPRTTRAQGISAEPQTYRSFHDLRQAFRKFTKSERSKDLIKEAILDNDFMKNLELSQIQEIVDCMYPVEYGKDSCIIKEGDVGSLVYVMEDGKVEVTKEGVKLCTMGPGKVFGELAILYNCTRTATVKTLVNVKLWAIDRQCFQTIMMRTGLIKHTEYMEFLKSVPTFQSLPEEILSKLADVLEETHYENGEYIIRQGARGDTFFIISKGKVNVTREDSPNEDPVFLRTLGKGDWFGEKALQGEDVRTANVIAAEAVTCLVIDRDSFKHLIGGLDDVSNKAYEDAEAKAKYEAEAAFFANLKLSDFNIIDTLGVGGFGRVELVQLKSEESKTFAMKILKKRHIVDTRQQEHIRSEKQIMQGAHSDFIVRLYRTFKDSKYLYMLMEACLGGELWTILRDRGSFEDSTTRFYTACVVEAFAYLHSKGIIYRDLKPENLILDHRGYAKLVDFGFAKKIGFGKKTWTFCGTPEYVAPEIILNKGHDISADYWSLGILMYELLTGSPPFSGPDPMKTYNIILRGIDMIEFPKKIAKNAANLIKKLCRDNPSERLGNLKNGVKDIQKHKWFEGFNWEGLRKGTLTPPIIPSVASPTDTSNFDSFPEDNDEPPPDDNSGWDIDF
For the protein B1, the Km in data set [1] was 50 µM; in data set [2], 5 µM.

B2: protein kinase B alpha (PKBα) (protein)
chain: MDFRSGSPSDNSGAEEMEVSLAKPKHRVTMNEFEYLKLLGKGTFGKVILVKEKATGRYYAMKILKKEVIVAKDEVAHTLTENRVLQNSRHPFLTALKYSFQTHDRLCFVMEYANGGELFFHLSRERVFSEDRARFYGAEIVSALDYLHSEKNVVYRDLKLENLMLDKDGHIKITDFGLCKEGIKDGATMKTFCGTPEYLAPEVLEDNDYGRAVDWWGLGVVMYEMMCGRLPFYNQDHEKLFELILMEEIRFPRTLGPEAKSLLSGLLKKDPKQRLGGGSEDAKEIMQHRFFAGIVWQHVYEKKLSPPFKPQVTSETDTRYFDEEFTAQMITITPPDQDDSMECVDSERRPHFPQFSYSASGTA
B2: the figures for the Km in [3] and in data set [4] were 4 µM and 2 µM, respectively.

B3: AMP-activated protein kinase (AMPK) (protein)
chain: MAEKQKHDGRVKIGHYVLGDTLGVGTFGKVKIGEHQLTGHKVAVKILNRQKIRSLDVVGKIKREIQNLKLFRHPHIIKLYQVISTPTDFFMVMEYVSGGELFDYICKHGRVEEVEARRLFQQILSAVDYCHRHMVVHRDLKPENVLLDAQMNAKIADFGLSNMMSDGEFLRTSCGSPNYAAPEVISGRLYAGPEVDIWSCGVILYALLCGTLPFDDEHVPTLFKKIRGGVFYIPEYLNRSIATLLMHMLQVDPLKRATIKDIREHEWFKQDLPSYLFPEDPSYDANVIDDEAVKEVCEKFECTESEVMNSLYSGDPQDQLAVAYHLIIDNRRIMNQASEFYLASSPPTGSFMDDMAMHIPPGLKPHPERMPPLIADSPKARCPLDALNTTKPKSLAVKKAKWHLGIRSQSKPYDIMAEVYRAMKQLDFEWKVVNAYHLRVRRKNPVTGNYVKMSLQLYLVDNRSYLLDFKSIDDEVVEQRSGSSTPQRSCSAAGLHRPRSSVDSSTAENHSLSGSLTGSLTGSTLSSASPRLGSHTMDFFEMCASLITALAR
For the protein B3, the Km in data set [5] is 80 µM; in data set [6] it was 75 µM.

B4: serum and glucocorticoid-induced kinase 1 (SGK1[S422D] and lacking the N-terminal 59 residues) (protein)
chain: ISQPQEPELMNANPSPPPSPSQQINLGPSSNPHAKPSDFHFLKVIGKGSFGKVLLARHKAEEVFYAVKVLQKKAILKKKEEKHIMSERNVLLKNVKHPFLVGLHFSFQTADKLYFVLDYINGGELFYHLQRERCFLEPRARFYAAEIASALGYLHSLNIVYRDLKPENILLDSQGHIVLTDFGLCKENIEHNSTTSTFCGTPEYLAPEVLHKQPYDRTVDWWCLGAVLYEMLYGLPPFYSRNTAEMYDNILNKPLQLKPNITNSARHLLEGLLQKDRTKRLGAKDDFMEIKSHVFFSLINWDDLINKKITPPFNPNVSGPNDLRHFDPEFTEEPVPNSIGKSPDSVLVTASVKEAAEAFLGFDYAPPTDSFL
For the protein B4, the Km in [3] and in [4] was 4 µM throughout.

B5: rat Rho-dependent protein kinase ROCKII[1-543] (protein)
chain: MSRPPPTGKMPGAPEAAAGDGAGAGRQRKLEALIRDPRSPINVESLLDGLNSLVLDLDFPALRKNKNIDNFLNRYEKIVKKIRGLQMKAEDYDVVKVIGRGAFGEVQLVRHKASQKVYAMKLLSKFEMIKRSDSAFFWEERDIMAFANSPWVVQLFCAFQDDRYLYMVMEYMPGGDLVNLMSNYDVPEKWAKFYTAEVVLALDAIHSMGLIHRDVKPDNMLLDKHGHLKLADFGTCMKMDETGMVHCDTAVGTPDYISPEVLKSQGGDGYYGRECDWWSVGVFLFEMLVGDTPFYADSLVGTYSKIMDHKNSLCFPEDTEISKHAKNLICAFLTDREVRLGRNGVEEIKSASFFKNDQWNWDNIRETAAPVVPELSSDIDSSNFDDIEDDKGDVETFPIPKAFVGNQLPFIGFTYFRENLLLSDSPPCRENDAIQTRKSEESQEIQKKLYALEEHLSSEVQAKEELEQKCKSINTRLEKTAKELEEEITFRKNVESTLRQLEREKALLQHKNAEYQRKADHEADKKRNLENDVNSLKDQLEDL
Regarding B5, the Km in [1] was over 100 µM; in data set [2], 5 µM.

B6: p70 ribosomal S6 kinase 1 (S6K1[T412E], lacking the C-terminal 104 residues) (protein)
chain: MRRRRRRDGFYPAPDFRDREAEDMAGVFDIDLDQPEDAGSEDELEEGGQLNESMDHGGVGPYELGMEHCEKFEISETSVNRGPEKIRPECFELLRVLGKGGYGKVFQVRKVTGANTGKIFAMKVLKKAMIVRNAKDTAHTKAERNILEEVKHPFIVDLIYAFQTGGKLYLILEYLSGGELFMQLEREGIFMEDTACFYLAEISMALGHLHQKGIIYRDLKPENIMLNHQGHVKLTDFGLCKESIHDGTVTHTFCGTIEYMAPEILMRSGHNRAVDWWSLGALMYDMLTGAPPFTGENRKKTIDKILKCKLNLPPYLTQEARDLLKKLLKRNAASRLGAGPGDAGEVQAHPFFRHINWEELLARKVEPPFKPLLQSEEDVSQFDSKFTRQTPVDSPDDSTLSESANQVFLGFEYVAPSVLES
Regarding B6, the Km in data set [7] was found to be 8 µM; in [4] it was 6 µM.

B7: MAPKAP-K3 (protein)
chain: MDGETAEEQGGPVPPPVAPGGPGLGGAPGGRREPKKYAVTDDYQLSKQVLGLGVNGKVLECFHRRTGQKCALKLLYDSPKARQEVDHHWQASGGPHIVCILDVYENMHHGKRCLLIIMECMEGGELFSRIQERGDQAFTEREAAEIMRDIGTAIQFLHSHNIAHRDVKPENLLYTSKEKDAVLKLTDFGFAKETTQNALQTPCYTPYYVAPEVLGPEKYDKSCDMWSLGVIMYILLCGFPPFYSNTGQAISPGMKRRIRLGQYGFPNPEWSEVSEDAKQLIRLLLKTDPTERLTITQFMNHPWINQSMVVPQTPLHTARVLQEDKDHWDEVKEEMTSALATMRVDYDQVKIKDLKTSNNRLLNKRRKKQAGSSSASQGCNNQ
As to B7, the Km in data set [8] amounted to 18 µM; in data set [6] it was 30 µM.

B8: p38 regulated/activated kinase (PRAK) (protein)
chain: MSEESDMDKAIKETSILEEYSINWTQKLGAGISGPVRVCVKKSTQERFALKILLDRPKARNEVRLHMMCATHPNIVQIIEVFANSVQFPHESSPRARLLIVMEMMEGGELFHRISQHRHFTEKQASQVTKQIALALRHCHLLNIAHRDLKPENLLFKDNSLDAPVKLCDFGFAKIDQGDLMTPQFTPYYVAPQVLEAQRRHQKEKSGIIPTSPTPYTYNKSCDLWSLGVIIYVMLCGYPPFYSKHHSRTIPKDMRRKIMTGSFEFPEEEWSQISEMAKDVVRKLLKVKPEERLTIEGVLDHPWLNSTEALDNVLPSAQLMMDKAVVAGIQQAHAEQLANMRIQDLKVSLKPLHSVNNPILRKRKLLGTKPKDSVYIHDHENGAEDSNVALEKLRDVIAQCILPQAGKGENEDEKLNEVMQEAWKYNRECKLLRDTLQSFSWNGRGFTDKVDRLKLAEIVKQVIEEQTTSHESQ
For the protein B8, the figures for the Km in data set [9] and in data set [6] were over 100 µM and 40 µM, respectively.

B9: Checkpoint Kinase 1 (CHK1) (protein)
chain: MAVPFVEDWDLVQTLGEGAYGEVQLAVNRVTEEAVAVKIVDMKRAVDCPENIKKEICINKMLNHENVVKFYGHRREGNIQYLFLEYCSGGELFDRIEPDIGMPEPDAQRFFHQLMAGVVYLHGIGITHRDIKPENLLLDERDNLKISDFGLATVFRYNNRERLLNKMCGTLPYVAPELLKRREFHAEPVDVWSCGIVLTAMLAGELPWDQPSDSCQEYSDWKEKKTYLNPWKKIDSAPLALLHKILVENPSARITIPDIKKDRWYNKPLKKGAKRPRVTSGGVSESPSGFSKHIQSNLDFSPVNSASSEENVKYSSSQPEPRTGLSLWDTSPSYIDKLVQGISFSQPTCPDHMLLNSQLLGTPGSSQNPWQRLVKRMTRFFTKLDADKSYQCLKETCEKLGYQWKKSCMNQVTISTTDRRNNKLIFKVNLLEMDDKILVDFRLSKGDGLEFKRHFLKIKGKLIDIVSSQKIWLPAT
On to B9, for which the Km in [10] and in data set [6] was 5 µM throughout.
